Measurements published in US11008403 (dated 2021).
Where a chain is given by its changes, count along the chain named. Names and notes keep the numbering of the source. Values belong to the binder of their own block, whether it stands above or below them.

Legend:
human TfR ECD = human TfR ECD (human); test: ELISA
cyno TfR ECD = target: T1, cyno TfR ECD (cynomolgus); test: ELISA
T1 chain: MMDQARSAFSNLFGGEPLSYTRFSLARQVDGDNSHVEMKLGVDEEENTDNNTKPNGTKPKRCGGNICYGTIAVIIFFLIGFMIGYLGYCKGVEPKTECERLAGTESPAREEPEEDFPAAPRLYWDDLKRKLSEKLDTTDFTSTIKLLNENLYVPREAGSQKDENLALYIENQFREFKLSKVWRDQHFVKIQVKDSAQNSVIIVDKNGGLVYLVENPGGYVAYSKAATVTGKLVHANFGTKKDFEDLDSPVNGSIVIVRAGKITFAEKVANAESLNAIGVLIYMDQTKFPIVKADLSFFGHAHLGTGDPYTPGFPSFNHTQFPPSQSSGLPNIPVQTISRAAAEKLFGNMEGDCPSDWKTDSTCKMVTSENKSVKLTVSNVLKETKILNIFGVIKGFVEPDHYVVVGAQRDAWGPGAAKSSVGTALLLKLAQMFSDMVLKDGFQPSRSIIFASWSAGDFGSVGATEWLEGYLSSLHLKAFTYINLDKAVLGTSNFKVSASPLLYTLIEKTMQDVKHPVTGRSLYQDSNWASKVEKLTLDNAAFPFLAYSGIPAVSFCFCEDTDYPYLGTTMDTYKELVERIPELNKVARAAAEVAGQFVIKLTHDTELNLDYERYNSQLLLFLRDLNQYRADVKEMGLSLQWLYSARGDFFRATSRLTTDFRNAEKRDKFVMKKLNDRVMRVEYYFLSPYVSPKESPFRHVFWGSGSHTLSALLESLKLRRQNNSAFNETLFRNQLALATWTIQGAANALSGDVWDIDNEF

Sequence of human TfR ECD (human) (chain, as listed by the source): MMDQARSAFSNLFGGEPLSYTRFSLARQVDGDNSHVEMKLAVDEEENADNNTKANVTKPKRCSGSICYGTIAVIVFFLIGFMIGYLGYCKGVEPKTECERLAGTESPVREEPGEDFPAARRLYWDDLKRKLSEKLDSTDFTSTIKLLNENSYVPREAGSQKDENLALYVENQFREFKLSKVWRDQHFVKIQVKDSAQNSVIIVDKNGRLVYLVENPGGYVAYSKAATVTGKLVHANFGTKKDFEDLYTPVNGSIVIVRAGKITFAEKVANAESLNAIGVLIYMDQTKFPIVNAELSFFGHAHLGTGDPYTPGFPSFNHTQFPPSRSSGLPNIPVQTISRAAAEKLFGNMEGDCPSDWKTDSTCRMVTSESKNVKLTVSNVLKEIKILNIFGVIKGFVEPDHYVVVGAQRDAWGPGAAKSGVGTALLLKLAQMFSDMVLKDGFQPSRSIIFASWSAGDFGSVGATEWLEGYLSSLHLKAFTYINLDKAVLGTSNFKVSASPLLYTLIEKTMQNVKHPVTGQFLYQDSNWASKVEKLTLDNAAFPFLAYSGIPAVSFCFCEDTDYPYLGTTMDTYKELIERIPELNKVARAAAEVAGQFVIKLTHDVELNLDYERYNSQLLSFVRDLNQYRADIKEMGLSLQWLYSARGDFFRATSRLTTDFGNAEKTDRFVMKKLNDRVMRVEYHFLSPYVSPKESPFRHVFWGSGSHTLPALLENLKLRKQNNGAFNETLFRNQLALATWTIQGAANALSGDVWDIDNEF

B1: hu15G11.v5 HC Y27A (antibody, V domains shown)
VH: EVQLVQSGAEVKKPGASVKVSCKASGATFTSYWMHWVRQAPGQRLEWIGEINPTNGRTNYIEKFKSRATLTVDKSASTAYMELSSLRSEDTAVYYCARGTRAYHYWGQGTMVTVSS
VL: DIQMTQSPSSLSASVGDRVTITCRASDNLYSNLAWYQQKPGKSPKLLVYDATNLADGVPSRFSGSGSGTDYTLTISSLQPEDFATYYCQHFWGTPLTFGQGTKVEIK
EC50 (human TfR ECD): 21.1 ng/mL | EC50 (cyno TfR ECD): 1470 ng/mL

B4: hu15G11.v5 LC R24A (antibody, V domains shown)
VH: B1 VH with A27Y
VL: B1 VL with R24A
EC50 (human TfR ECD): 0.1 ng/mL | EC50 (cyno TfR ECD): 0.4 ng/mL

B7: hu15G11.v5 HC T53A (antibody, V domains shown)
VH: B1 VH with A27Y, T54A
VL: B1 VL
EC50 (human TfR ECD): 0.3 ng/mL | EC50 (cyno TfR ECD): 0.7 ng/mL

B10: hu15G11.v5 HC G49A (antibody, V domains shown)
VH: B1 VH with A27Y, G49A
VL: B1 VL
EC50 (human TfR ECD): 0.3 ng/mL | EC50 (cyno TfR ECD): 1.1 ng/mL

B11: hu15G11.v5 HC E50A (antibody, V domains shown)
VH: B1 VH with A27Y, E50A
VL: B1 VL
EC50 (human TfR ECD): 20.6 ng/mL | EC50 (cyno TfR ECD): 410 ng/mL

B14: hu15G11.v5 LC T52A (antibody, V domains shown)
VH: B1 VH with A27Y
VL: B1 VL with T52A
EC50 (human TfR ECD): 0.2 ng/mL | EC50 (cyno TfR ECD): 0.3 ng/mL

B16: hu15G11.v5 LC N53A (antibody, V domains shown)
VH: B1 VH with A27Y
VL: B1 VL with N53A
EC50 (human TfR ECD): 0.3 ng/mL | EC50 (cyno TfR ECD): 0.6 ng/mL

B17: hu15G11.v5 LC L33A (antibody, V domains shown)
VH: B1 VH with A27Y
VL: B1 VL with L33A
EC50 (human TfR ECD): 0.05 ng/mL | EC50 (cyno TfR ECD): 0.1 ng/mL

B18: hu15G11.v5 IgG (antibody, V domains shown)
VH: B1 VH with A27Y
VL: B1 VL
EC50 (human TfR ECD): 0.8 ng/mL | EC50 (cyno TfR ECD): 1.8 ng/mL

B19: hu15G11.v5 LC L29A (antibody, V domains shown)
VH: B1 VH with A27Y
VL: B1 VL with L29A
EC50 (human TfR ECD): 0.3 ng/mL | EC50 (cyno TfR ECD): 0.9 ng/mL

B20: hu15G11.v5 HC S31A (antibody, V domains shown)
VH: B1 VH with A27Y, S31A
VL: B1 VL
EC50 (human TfR ECD): 0.05 ng/mL | EC50 (cyno TfR ECD): 0.1 ng/mL

B22: hu15G11.v5 HC T30A (antibody, V domains shown)
VH: B1 VH with A27Y, T30A
VL: B1 VL
EC50 (human TfR ECD): 0.4 ng/mL | EC50 (cyno TfR ECD): 0.9 ng/mL

B24: hu15G11.v5 LC N32A (antibody, V domains shown)
VH: B1 VH with A27Y
VL: B1 VL with N32A
EC50 (human TfR ECD): 1.6 ng/mL | EC50 (cyno TfR ECD): 4 ng/mL

B25: hu15G11.v5 HC G26A (antibody, V domains shown)
VH: B1 VH with G26A, A27Y
VL: B1 VL
EC50 (human TfR ECD): 1.1 ng/mL | EC50 (cyno TfR ECD): 6.1 ng/mL

B26: hu15G11.v5 LC D50A (antibody, V domains shown)
VH: B1 VH with A27Y
VL: B1 VL with D50A
EC50 (human TfR ECD): 0.2 ng/mL | EC50 (cyno TfR ECD): 0.5 ng/mL

B28: hu15G11.v5 LC S26A (antibody, V domains shown)
VH: B1 VH with A27Y
VL: B1 VL with S26A
EC50 (human TfR ECD): 0.2 ng/mL | EC50 (cyno TfR ECD): 0.6 ng/mL

B29: hu15G11.v5 HC M34A (antibody, V domains shown)
VH: B1 VH with A27Y, M34A
VL: B1 VL
EC50 (human TfR ECD): 0.4 ng/mL | EC50 (cyno TfR ECD): 1.1 ng/mL

Results, then the binder that gave them:

EC50 (human TfR ECD): 0.3 ng/mL | EC50 (cyno TfR ECD): 1 ng/mL
B2: hu15G11.v5 LC Y30A (antibody, V domains shown)
VH: B1 VH with A27Y
VL: B1 VL with Y30A

EC50 (human TfR ECD): 0.4 ng/mL | EC50 (cyno TfR ECD): 0.8 ng/mL
B3: hu15G11.v5 HC T28A (antibody, V domains shown)
VH: B1 VH with A27Y, T28A
VL: B1 VL

EC50 (human TfR ECD): 0.3 ng/mL | EC50 (cyno TfR ECD): 0.9 ng/mL
B5: hu15G11.v5 HC N52A (antibody, V domains shown)
VH: B1 VH with A27Y, N52A
VL: B1 VL

EC50 (human TfR ECD): 0.2 ng/mL | EC50 (cyno TfR ECD): 0.8 ng/mL
B6: hu15G11.v5 LC D27A (antibody, V domains shown)
VH: B1 VH with A27Y
VL: B1 VL with D27A

EC50 (human TfR ECD): 0.4 ng/mL | EC50 (cyno TfR ECD): 1.4 ng/mL
B8: hu15G11.v5 HC Y32A (antibody, V domains shown)
VH: B1 VH with A27Y, Y32A
VL: B1 VL

EC50 (human TfR ECD): 0.2 ng/mL | EC50 (cyno TfR ECD): 0.6 ng/mL
B9: hu15G11.v5 HC I51A (antibody, V domains shown)
VH: B1 VH with A27Y, I51A
VL: B1 VL

EC50 (human TfR ECD): 0.3 ng/mL | EC50 (cyno TfR ECD): 0.5 ng/mL
B12: hu15G11.v5 LC D56A (antibody, V domains shown)
VH: B1 VH with A27Y
VL: B1 VL with D56A

EC50 (human TfR ECD): 0.2 ng/mL | EC50 (cyno TfR ECD): 0.8 ng/mL
B13: hu15G11.v5 LC N28A (antibody, V domains shown)
VH: B1 VH with A27Y
VL: B1 VL with N28A

EC50 (human TfR ECD): 0.3 ng/mL | EC50 (cyno TfR ECD): 0.7 ng/mL
B15: hu15G11.v5 LC S31A (antibody, V domains shown)
VH: B1 VH with A27Y
VL: B1 VL with S31A

EC50 (human TfR ECD): 59.6 ng/mL | EC50 (cyno TfR ECD): 362 ng/mL
B21: hu15G11.v5 HC W33A (antibody, V domains shown)
VH: B1 VH with A27Y, W33A
VL: B1 VL

EC50 (human TfR ECD): 0.4 ng/mL | EC50 (cyno TfR ECD): 0.5 ng/mL
B23: hu15G11.v5 LC L54A (antibody, V domains shown)
VH: B1 VH with A27Y
VL: B1 VL with L54A

EC50 (human TfR ECD): 1.5 ng/mL | EC50 (cyno TfR ECD): 12.5 ng/mL
B27: hu15G11.v5 HC F29A (antibody, V domains shown)
VH: B1 VH with A27Y, F29A
VL: B1 VL
